This note sets out measurements from patent US20210139559A1 (XL PROTEIN, published 2021).

Where two headings read alike, the source gives them in different places.

Assay [1] has as its target T1, human VEGF165 ligand (human, UniProt P15692-4 27-191). Kind of assay: cell-based or functional assay.
In assay [2] the target is T1, human VEGF165 ligand. The assay is described as follows: serial dilution mixed with 50 pM human VEGF165 in solution, unbound VEGF165 measured by ELISA. The procedure: The amount of unbound VEGF₁₆₅ was then measured by a human VEGF-specific ELISA (Human VEGF DuoSet ELISA kit, R&D Systems, CAT. No. DY293B-05).
(§1) Unbound human VEGF₁₆₅ or PDGF-BB was calculated using 4 parameters curve with the absorbance value. And the IC₅₀ of the tested fusion proteins and the reference was calculated using 4 parameters curve with unbound human VEGF₁₆₅ or PDGF-BB.
For orientation: In an ELISA, binding on a coated surface is turned into a signal by an enzyme label.

Assay [3] concerns the target T2, human PDGF-BB ligand (human, UniProt P01127 82-190). The assay is described as follows: serial dilution mixed with 1 ng/ml human PDGF-BB in solution, unbound PDGF-BB measured by ELISA. As to the method:
The amount of unbound PDGF-BB was then measured by a human PDGF-BB-specific ELISA (Human PDGF-BB DuoSet ELISA kit, R&D Systems, CAT. No. DY220).
as §1

The target in assay [4] is T1, human VEGF165 ligand. The assay is described as follows: cell-based or functional assay. This is another data set of the same source.
Assay [5] concerns the target T2, human PDGF-BB ligand. The assay is described as follows: native PAGE electromobility gel shift; alone or together with VEGF165. The procedure: EPS1104P was mixed with VEGF₁₆₅ (#C083, Novoprotein, Shanghai, China), PDGF-BB (#C199, Novoprotein, Shanghai, China) and VEGF+PDGF-BB, and incubated in an ice bath for 30 min. 40 μL of the above three incubation mixtures and EPS1104P were added to 10 μl of 5× Loading buffer (#ES005, Wanshenghaotian, Shanghai, China), respectively, and the four samples were loaded on a native PAGE gel (#NGSH2001-8T, Wanshenghaotian, Shanghai, China). The electrophoresis was run at 70 V for 6 hours. The gel was stained with Coomassie blue and then bleached. […] It is also possible to combine EPS1104P with both VEGF165 and PDGF-BB to form a stable complex.

T1 sequence (P15692 other isoform, or with tags, fused parts or gaps limits assumed): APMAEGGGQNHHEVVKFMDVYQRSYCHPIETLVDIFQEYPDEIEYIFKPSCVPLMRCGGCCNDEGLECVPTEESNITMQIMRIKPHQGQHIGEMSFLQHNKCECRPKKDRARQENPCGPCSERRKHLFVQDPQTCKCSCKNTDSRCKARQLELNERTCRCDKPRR
T2 sequence (P01127 82-190): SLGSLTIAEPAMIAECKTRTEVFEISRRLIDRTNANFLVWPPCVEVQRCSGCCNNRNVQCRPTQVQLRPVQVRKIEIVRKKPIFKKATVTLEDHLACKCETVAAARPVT

B1: VEGFR1D2/R2D3-PAS(200)-PDGFRαD123 (receptor)
chain: SDTGRPFVEMYSEIPEIIHMTEGRELVIPCRVTSPNITVTLKKFPLDTLIPDGKRIIWDSRKGFIISNATYKEIGLLTCEATVNGHLYKTNYLTHRQTNTIIDVVLSPSHGIELSVGEKLVLNCTARTELNVGIDFNWEYPSSKHQHKKLVNRDLKTQSGSEMKKFLSTLTIDGVTRSDQGLYTCAASSGLMTKKNSTFVRVHEKASPAAPAPASPAAPAPSAPAASPAAPAPASPAAPAPSAPAASPAAPAPASPAAPAPSAPAASPAAPAPASPAAPAPSAPAASPAAPAPASPAAPAPSAPAASPAAPAPASPAAPAPSAPAASPAAPAPASPAAPAPSAPAASPAAPAPASPAAPAPSAPAASPAAPAPASPAAPAPSAPAASPAAPAPASPAAPAPSAPAQLSLPSILPNENEKVVQLNSSFSLRCFGESEVSWQYPMSEEESSDVEIRNEENNSGLFVTVLEVSSASAAHTGLYTCYYNHTQTEENELEGRHIYIYVPDPDVAFVPLGMTDYLVIVEDDDSAIIPCRTTDPETPVTLHNSEGVVPASYDSRQGFNGTFTVGPYICEATVKGKKFQTIPFNVYALKATSELDLEMEALKTVYKSGETIVVTCAVFNNEVVDLQWTYPGEVKGKGITMLEEIKVPSIKLVYTLTVPEATVKDSGDYECAARQATREVKEMKKVTISVHEKGHHHHHH
notes: also called EPS1105P
In the case of B1, in assay [1], the “Inhibition of HUVEC cells proliferation, IC50” value (from here on “Inhibition”) came to 28.4 nM. Also, inhibition in assay [2] was half-maximal at 0.546 nM (IC50).

B2: PDGFRαD123-PAS(200)-VEGFR1D2/R2D3 fusion protein (receptor)
chain: QLSLPSILPNENEKVVQLNSSFSLRCFGESEVSWQYPMSEEESSDVEIRNEENNSGLFVTVLEVSSASAAHTGLYTCYYNHTQTEENELEGRHIYIYVPDPDVAFVPLGMTDYLVIVEDDDSAIIPCRTTDPETPVTLHNSEGVVPASYDSRQGFNGTFTVGPYICEATVKGKKFQTIPFNVYALKATSELDLEMEALKTVYKSGETIVVTCAVFNNEVVDLQWTYPGEVKGKGITMLEEIKVPSIKLVYTLTVPEATVKDSGDYECAARQATREVKEMKKVTISVHEKGASPAAPAPASPAAPAPSAPAASPAAPAPASPAAPAPSAPAASPAAPAPASPAAPAPSAPAASPAAPAPASPAAPAPSAPAASPAAPAPASPAAPAPSAPAASPAAPAPASPAAPAPSAPAASPAAPAPASPAAPAPSAPAASPAAPAPASPAAPAPSAPAASPAAPAPASPAAPAPSAPAASPAAPAPASPAAPAPSAPAASDTGRPFVEMYSEIPEIIHMTEGRELVIPCRVTSPNITVTLKKFPLDTLIPDGKRIIWDSRKGFIISNATYKEIGLLTCEATVNGHLYKTNYLTHRQTNTIIDVVLSPSHGIELSVGEKLVLNCTARTELNVGIDFNWEYPSSKHQHKKLVNRDLKTQSGSEMKKFLSTLTIDGVTRSDQGLYTCAASSGLMTKKNSTFVRVHEKHHHHHHA
modifications: glycosylated (as purified from MEXi-293E medium)
notes: also called EPS1108P
On to B2, for which the “Inhibition” value in assay [1] worked out at 28.5 nM. Besides, the IC50 in assay [2] was 0.32 nM; in assay [3], 66.3 nM.

B3: VEGFR1D2/R2D3-(GGGGS)3-PAS(200)-(GGGGS)3-PDGFRαD123 (receptor)
chain: SDTGRPFVEMYSEIPEIIHMTEGRELVIPCRVTSPNITVTLKKFPLDTLIPDGKRIIWDSRKGFIISNATYKEIGLLTCEATVNGHLYKTNYLTHRQTNTIIDVVLSPSHGIELSVGEKLVLNCTARTELNVGIDFNWEYPSSKHQHKKLVNRDLKTQSGSEMKKFLSTLTIDGVTRSDQGLYTCAASSGLMTKKNSTFVRVHEKGGGGSGGGGSGGGGSASPAAPAPASPAAPAPSAPAASPAAPAPASPAAPAPSAPAASPAAPAPASPAAPAPSAPAASPAAPAPASPAAPAPSAPAASPAAPAPASPAAPAPSAPAASPAAPAPASPAAPAPSAPAASPAAPAPASPAAPAPSAPAASPAAPAPASPAAPAPSAPAASPAAPAPASPAAPAPSAPAASPAAPAPASPAAPAPSAPAGGGGSGGGGSGGGGSQLSLPSILPNENEKVVQLNSSFSLRCFGESEVSWQYPMSEEESSDVEIRNEENNSGLFVTVLEVSSASAAHTGLYTCYYNHTQTEENELEGRHIYIYVPDPDVAFVPLGMTDYLVIVEDDDSAIIPCRTTDPETPVTLHNSEGVVPASYDSRQGFNGTFTVGPYICEATVKGKKFQTIPFNVYALKATSELDLEMEALKTVYKSGETIVVTCAVFNNEVVDLQWTYPGEVKGKGITMLEEIKVPSIKLVYTLTVPEATVKDSGDYECAARQATREVKEMKKVTISVHEKGHHHHHH
notes: also called EPS1107P
On to B3, for which, in assay [1], the “Inhibition” value stood at 53.1 nM. For the same molecule, inhibition in assay [2] was half-maximal at 0.304 nM (IC50).

B4: PDGFRαD123-(GGGGS)3-PAS(200)-(GGGGS)3-VEGFR1D2/R2D3 (receptor)
chain: QLSLPSILPNENEKVVQLNSSFSLRCFGESEVSWQYPMSEEESSDVEIRNEENNSGLFVTVLEVSSASAAHTGLYTCYYNHTQTEENELEGRHIYIYVPDPDVAFVPLGMTDYLVIVEDDDSAIIPCRTTDPETPVTLHNSEGVVPASYDSRQGFNGTFTVGPYICEATVKGKKFQTIPFNVYALKATSELDLEMEALKTVYKSGETIVVTCAVFNNEVVDLQWTYPGEVKGKGITMLEEIKVPSIKLVYTLTVPEATVKDSGDYECAARQATREVKEMKKVTISVHEKGGGGGSGGGGSGGGGSASPAAPAPASPAAPAPSAPAASPAAPAPASPAAPAPSAPAASPAAPAPASPAAPAPSAPAASPAAPAPASPAAPAPSAPAASPAAPAPASPAAPAPSAPAASPAAPAPASPAAPAPSAPAASPAAPAPASPAAPAPSAPAASPAAPAPASPAAPAPSAPAASPAAPAPASPAAPAPSAPAASPAAPAPASPAAPAPSAPAGGGGSGGGGSGGGGSSDTGRPFVEMYSEIPEIIHMTEGRELVIPCRVTSPNITVTLKKFPLDTLIPDGKRIIWDSRKGFIISNATYKEIGLLTCEATVNGHLYKTNYLTHRQTNTIIDVVLSPSHGIELSVGEKLVLNCTARTELNVGIDFNWEYPSSKHQHKKLVNRDLKTQSGSEMKKFLSTLTIDGVTRSDQGLYTCAASSGLMTKKNSTFVRVHEKHHHHHH
notes: also called EPS1106P
In the case of B4, the “Inhibition” value in assay [1] turned out to be 39.7 nM. In assay [2], this molecule gave an IC50 of 0.555 nM.

B5: PDGFRαD123-PAS(400)-VEGFR1D2/R2D3 (receptor)
chain: QLSLPSILPNENEKVVQLNSSFSLRCFGESEVSWQYPMSEEESSDVEIRNEENNSGLFVTVLEVSSASAAHTGLYTCYYNHTQTEENELEGRHIYIYVPDPDVAFVPLGMTDYLVIVEDDDSAIIPCRTTDPETPVTLHNSEGVVPASYDSRQGFNGTFTVGPYICEATVKGKKFQTIPFNVYALKATSELDLEMEALKTVYKSGETIVVTCAVFNNEVVDLQWTYPGEVKGKGITMLEEIKVPSIKLVYTLTVPEATVKDSGDYECAARQATREVKEMKKVTISVHEKGASPAAPAPASPAAPAPSAPAASPAAPAPASPAAPAPSAPAASPAAPAPASPAAPAPSAPAASPAAPAPASPAAPAPSAPAASPAAPAPASPAAPAPSAPAASPAAPAPASPAAPAPSAPAASPAAPAPASPAAPAPSAPAASPAAPAPASPAAPAPSAPAASPAAPAPASPAAPAPSAPAASPAAPAPASPAAPAPSAPAASPAAPAPASPAAPAPSAPAASPAAPAPASPAAPAPSAPAASPAAPAPASPAAPAPSAPAASPAAPAPASPAAPAPSAPAASPAAPAPASPAAPAPSAPAASPAAPAPASPAAPAPSAPAASPAAPAPASPAAPAPSAPAASPAAPAPASPAAPAPSAPAASPAAPAPASPAAPAPSAPAASPAAPAPASPAAPAPSAPASDTGRPFVEMYSEIPEIIHMTEGRELVIPCRVTSPNITVTLKKFPLDTLIPDGKRIIWDSRKGFIISNATYKEIGLLTCEATVNGHLYKTNYLTHRQTNTIIDVVLSPSHGIELSVGEKLVLNCTARTELNVGIDFNWEYPSSKHQHKKLVNRDLKTQSGSEMKKFLSTLTIDGVTRSDQGLYTCAASSGLMTKKNSTFVRVHEKHHHHHH
notes: also called EPS1104P
With B5, the “Inhibition” value in assay [4] came out at 1.43 nM. The binding result in assay [5] is on record as “binds”. In addition, in assay [2], the IC50 was 0.495 nM.

By IC50 is commonly meant the concentration that gives 50% inhibition. Lower therefore signals greater potency in that assay.
